In the test the target is T1, Bcl-xL (UniProt Q07817-1 1-233).
T1 construct: Bcl-xL, prosurvival Bcl-2 family protein
Kind of test: SPR; no format or conditions told. For orientation: SPR reads the build-up and loss of mass on a sensor chip optically.

T1 sequence (Q07817 whole entry): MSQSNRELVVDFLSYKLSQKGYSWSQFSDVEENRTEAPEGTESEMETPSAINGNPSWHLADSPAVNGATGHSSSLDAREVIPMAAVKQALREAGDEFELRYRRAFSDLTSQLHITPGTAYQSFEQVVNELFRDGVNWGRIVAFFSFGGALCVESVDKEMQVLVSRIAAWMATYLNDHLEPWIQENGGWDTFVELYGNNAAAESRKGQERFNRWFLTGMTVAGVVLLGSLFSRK

B1: BimSBad^mut (BimSBad with the Bad BH3 residue F121 mutated to alanine) (ligand)
chain: MAKQPSDVSSECDREGRQLQPAERPPQLRPGAPTSLQTEPQASMRQAEPANLWAAQRYGRELRRMSDEAVDSFKKGVFLNNYQAAEDHPRMVILRLLRYIVRLVWRMH
modifications: N-terminal FLAG tag left out. Same conventional swap limits and species assumption as m1.
With B1, the affinity, expressed as Kd, was 8.5 nM.

B2: BimSBad (BimS BH3-only protein in which the native BH3 sequence is replaced by the BH3 domain of Bad) (ligand)
chain: MAKQPSDVSSECDREGRQLQPAERPPQLRPGAPTSLQTEPQASMRQAEPANLWAAQRYGRELRRMSDEFVDSFKKGVFLNNYQAAEDHPRMVILRLLRYIVRLVWRMH
modifications: N-terminal FLAG tag left out. BimS = BimEL lacking 42-131. Swap limits are only in Figure 1a; the conventional 26-mer exchange is used (Bim 141-166, which is BimS 51-76, replaced by Bad 103-128). The
For the molecule B2, the dissociation constant Kd (as a rule, the constant that tells how readily two partners part at equilibrium) was under 0.2 nM.

The values are drawn from PMC4385932, “A transgenic mouse model to inducibly target prosurvival Bcl2 proteins with selective BH3 peptides in vivo” (Cell Death & Disease, 2015).
